Measured values from US9163218B2, “Method for increasing the efficiency of inducing pluripotent stem cells” (GUANGZHOU INSTITUTES OF BIOMEDICINE AND HEALTH, CHINESE …, priority 2011, dated 2015).

System: OG2 mouse embryonic fibroblasts
Experiment: Induction of pluripotent stem cells (reprogramming) from OG2 mouse embryonic fibroblasts; GFP fluorescence clones counted
Type: cell-based
Settings: for induction of pluripotent stem cells with only SO, KO or Oct4: Jhdm1a and Jhdm1b together, mES medium with 50 μg/ml vitamin C, FIG. 3; for induction of pluripotent stem cells with only SO, KO or Oct4 / efficiency of reprogramming (inducing pluripotent stem cells) mediated by SKO / efficiency of reprogramming (inducing pluripotent stem cells) mediated by SKOM: control pMXs-FLAG empty vector; for efficiency of reprogramming (inducing pluripotent stem cells) mediated by SKO: with Klf4, Sox2, Oct4 (SKO); for efficiency of reprogramming (inducing pluripotent stem cells) mediated by SKO / efficiency of reprogramming (inducing pluripotent stem cells) mediated by SKOM: whether vitamin C present or not; for efficiency of reprogramming (inducing pluripotent stem cells) mediated by SKOM: with Klf4, Sox2, c-Myc, Oct4 (SKOM)

| Molecule | effect of vitamin C on reprogramming by Oct4 with Jhdm1b (Oct4 + Jhdm1b (OB), vitamin C present) | effect of vitamin C on improvement of reprogramming efficiency, SKO (SKO plus Jhdm1a or Jhdm1b, vitamin C in inducing medium (50 μg/mL), FIG. 1) | effect of vitamin C on improvement of reprogramming efficiency, SKOM (SKOM plus Jhdm1a or Jhdm1b, vitamin C in inducing medium (50 μg/mL), FIG. 2) | induction of pluripotent stem cells with only SO, KO or Oct4 | efficiency of reprogramming (inducing pluripotent stem cells) mediated by SKO (FIG. 1) | efficiency of reprogramming (inducing pluripotent stem cells) mediated by SKOM (FIG. 2) | completion of reprogramming by combination with Oct4 alone (Oct4 + Jhdm1b (OB), common culture medium without vitamin C) |
| --- | --- | --- | --- | --- | --- | --- | --- |
| O=C1O[C@H]([C@@H](O)CO)C(O)=C1O [vitamin C, reference compound] | achieves more significant effects | the improvement was more significant | the improvement was more significant | – | – | – | – |
| Jhdm1a: member of the JmjC-domain-containing histone demethylase family, expressed from pMXs-FLAG retroviral vector (SEQ ID NO: 1 / 7) (protein, FLAG tag; nucleotide acid sequence of coding regions for kdm2a) MEPEEERIRYSQRLRGTMRRRYEDDGISDDEIEGKRTFDLEEKLQTNKYNANFVTFMEGKDFNVEYIQRGGLRDPLIFKNSDGLGIKMPDPDFTVNDVKMCVGSRRMVDVMDVNTQKGIEMTMAQWTRYYETPEEEREKLYNVISLEFSHTRLENMVQRPSTVDFIDWVDNMWPRHLKESQTESTNAILEMQYPKVQKYCLMSVRGCYTDFHVDFGGTSVWYHIHQGGKVFWLIPPTAHNLELYENWLLSGKQGDIFLGDRVSDCQRIELKQGYTFVIPSGWIHAVYTPTDTLVFGGNFLHSFNIPMQLKIYSIEDRTRVPNKFRYPFYYEMCWYVLERYVYCITNRSHLTKDFQKESLSMDMELNELESGNGDEEGVDREARRMNNKRSVLTSPVANGVNLDYDGLGKACRSLPSLKKTLSGDSSSDSTRGSHNGQVWDPQCSPKKDRQVHLTHFELEGLRCLVDKLESLPLHKKCVPTGIEDEDALIADVKILLEELASSDPKLALTGVPIVQWPKRDKLKFPTRPKVRVPTIPITKPHTMKPAPRLTPVRPAAASPIVSGARRRRVRCRKCKACVQGECGVCHYCRDMKKFGGPGRMKQSCVLRQCLAPRLPHSVTCSLCGEVDQNEETQDFEKKLMECCICNEIVHPGCLQMDGEGLLNEELPNCWECPKCYQEDSSDKAQKRKIEESDEEAVQAKVLRPLRSCEEPLTPPPHSPTSMLQLIHDPVSPRGMVTRSSPGAGPSDHHSASRDERFKRRQLLRLQATERTMVREKENNPSGKKELSEVEKAKIRGSYLTVTLQRPTKELHGTSIVPKLQAITASSANLRPNPRVLMQHCPARNPQHGDEEGLGGEEEEEEEEEEDDSAEEGGAARLNGRGSWAQDGDESWMQREVWMSVFRYLSRKELCECMRVCKTWYKWCCDKRLWTKIDLSRCKAIVPQALSGIIKRQPVSLDLSWTNISKKQLTWLVNRLPGLKDLLLAGCSWSAVSALSTSSCPLLRTLDLRWAVGIKDPQIRDLLTPPTDKPGQDNRSKLRNMTDFRLAGLDITDATLRLIIRHMPLLSRLDLSHCSHLTDQSSNLLTAVGSSTRYSLTELNMAGCNKLTDQTLFFLRRIANVTLIDLRGCKQITRKACEHFISDLSINSLYCLSDEKLIQKIS | – | – | – | acted together to enable the induction of pluripotent stem cells | obviously improved the efficiency of reprogramming | obviously improved the efficiency of reprogramming | – |
| Jhdm1b: member of the JmjC-domain-containing histone demethylase family, expressed from pMXs-FLAG retroviral vector (SEQ ID NO: 2 / 8) (protein, FLAG tag; nucleotide acid sequence of coding regions for kdm2b) MEAEKDSGRRLRAIDRQRYDENEDLSDVEEIVSVRGFSLEEKLRSQLYQGDFVHAMEGKDFNYEYVQREALRVPLVFRDKDGLGIKMPDPDFTVRDVKLLVGSRRLVDVMDVNTQKGTEMSMSQFVRYYETPEAQRDKLYNVISLEFSHTKLEHLVKRPTVVDLVDWVDNMWPQHLKEKQTEATNALAEMKYPKVKKYCLMSVKGCFTDFHIDFGGTSVWYHVFRGGKIFWLIPPTLHNLALYEEWVLSGKQSDIFLGDRVERCQRIELKQGYTFFIPSGWIHAVYTPVDSLVFGGNILHSFNVPMQLRIYEIEDRTRVQPKFRYPFYYEMCWYVLERYVYCVTQRSYLTQEYQRELMLIDAPRKTSVDGFSSDSWLDMEEESCEQQPQEEEEEEEDKEEEGDGADKTPKPPTDDPTSPTSTPPEDQDSTGKKPKAPAIRFLKRTLSNESEESVKSTSMPTDDPKTPTGSPATEVSTKWTHLTEFELKGLKALVEKLESLPENKKCVPEGIEDPQALLEGVKNVLKEHVDDDPTLAITGVPVVSWPKKTAKNRVVGRPKGKLGPASAVKLAANRTTAGARRRRTRCRKCEACLRTECGECHFCKDMKKFGGPGRMKQSCIMRQCIAPVLPHTAVCLVCGEAGKEDTVEEEEGKFNLMLMECSICNEIIHPGCLKIKESEGVVNDELPNCWECPKCNHAGKTGKQKRGPGFKYASNLPGSLLKEQKMNRDNKEGQEPAKRRSECEEAPRRRSDEHPKKVPADGILRRKSDDVHLRRKRKYEKPQELSGRKRASSLQTSPGSSSHLSPRPPLGSSLSPWWRSSLTYFQQQLKPGKEDKLFRKKRRSWKNAEDRLSLANKPLRRFKQEPEDDLPEAPPKTRESDQSRSSSPTAGPSTEGAEGPEEKKKVKMRRKRRLVNKELSKELSKELNHEIQKTESTLAHESQQPIKSEPESENDEPKRPLSHCERPHRFSKGLNGTPRELRHSLGPGLRSPPRVMSRPPPSASPPKCIQMERHVIRPPPISPPPDSLPLDDGAAHVMHREVWMAVFSYLSHRDLCVCMRVCRTWNRWCCDKRLWTRIDLNRCKSITPLMLSGIIRRQPVSLDLSWTNISKKQLSWLINRLPGLRDLVLSGCSWIAVSALCSSSCPLLRTLDVQWVEGLKDAQMRDLLSPPTDNRPGQMDNRSKLRNIVELRLAGLDITDVSLRLIIRHMPLLSKLQLSYCNHINDQSINLLTAVGTTTRDSLTEVNLSDCNKVTDLCLSFFKRCGNICHIDLRYCKQVTKEGCEQFIAEMSVSVQFGQVEEKLLQKLS | – | – | – | acted together to enable the induction of pluripotent stem cells | obviously improved the efficiency of reprogramming | obviously improved the efficiency of reprogramming | can complete reprogramming in a common culture medium |
